# Source: patent US20180236028
# System: Reelin of primary cortical neurons (endogenous, cellular and supernatant fractions)
substance,measurement,value
"MMP-9 (active; Calbiochem, PF140)","Reelin processing in primary neurons, Western blot",application of MMP-9 to primary neurons led to a specific accumulation of the 180 kDa fragment in cells and MMP-9 inhibition for 24 hours led to a dramatic increase in full-length cellular Reelin and decrease in cellular 180 kDa Reelin
